According to US20260258115A1 (MAPP BIOPHARMACEUTICAL, published 2026):
Substitutions are numbered along the chain they refer to. Numbers in names are those of the source.

B1: ADI-43638 (antibody, V domains shown)
VH: QVQLQQWGAGLLKPSETLSLTCAVYGGSFSGYYWSWIRQPPGKGLEWIGEINHSGSTNYNPSLKSRVTISVDTSKNQFSLKLSSVTAADTAVYYCARGVPVLRYFDWLRFGYGMDVWGQGTTVTVSS
VL: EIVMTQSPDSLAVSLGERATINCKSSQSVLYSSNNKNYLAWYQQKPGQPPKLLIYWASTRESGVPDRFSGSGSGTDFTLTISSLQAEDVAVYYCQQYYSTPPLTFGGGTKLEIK
B2: ADI-43639 (antibody, V domains shown)
VH: QVQLVQSGSELKKPGASVKVSCKASGYTFTSYAMNWVRQAPGQGLEWMGWINTNTGNPTYAQGFTGRFVFSLDTSVSTAYLQISSLKAEDTAVYYCAAYGIHDAFDIWGQGTMVTVSS
VL: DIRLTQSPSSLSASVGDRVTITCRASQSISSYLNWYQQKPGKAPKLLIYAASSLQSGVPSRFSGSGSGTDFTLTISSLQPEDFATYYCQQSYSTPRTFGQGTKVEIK
B3: ADI-41221 (antibody, V domains shown)
VH: EVQLLESGGGLVKPGGSLRLSCAASGFTFSDYTMNWVRQAPGKGLEWVSSISITSSHIYYADSVKGRFTISRDNAKNSLYLQINSLRAEDTAAYYCARELGFASSSYSYYYGMDVWGQGTTVTVSS
VL: QSALTQPRSVSGSPGQSVTISCTGTSSDVGDYNSVSWYQQHPGTAPKLIIFDVTQRPSGVPDRFSGSKSANTASLTISGLQPEDEADYYCCSFAGNYVFGTGTKVTVL
B4: ADI-20975 (antibody, V domains shown)
VH: QVQLVESGTHVKKPGASVKVSCEASDDTFNNKGIVWVRQAPGQGLEWMGWIRPNNGNTKYAQKFQGRVTMTTDASTNTAYMELRSLRSGDTAVYYCAREQFKWNDFYFDYWGQGILVTVSS
VL: SYELMQPPSVSVAPGQTATITCGGSNIGSETVHWYQQKPGQAPVLVVHDDTDRPSGIPERFSGSNSGNTATLTISGVEAGDEADFYCQVRDSRTDDVVFGGGTKLTVL
B5: ADI-41596 (antibody, V domains shown)
VH: QVQLQQWGAGLLKPSETLSLTCAVYGDSFSGYFWTWIRQPPGKGLEWIGEINLSGSTNYNPSLKSRVTILVDTSKNQFSLKLSSVTAADTAVYYCARGLHVSDDQDSSGYYFHPGSFDYWGQGTLVTVSS
VL: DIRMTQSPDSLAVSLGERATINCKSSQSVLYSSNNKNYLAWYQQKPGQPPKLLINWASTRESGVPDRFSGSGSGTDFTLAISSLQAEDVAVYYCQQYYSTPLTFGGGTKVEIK
notes: also called Ab 870; Antibody Number 870
B6: ADI-41229 (antibody, V domains shown)
VH: QVQLVQSGGGVVQPGRSLKLSCAASGFTFKSYGMHWVRQAPGKGLEWVAVISYDEINKYYADSVKGRFTISRDYSKNTLSLQMNSLTTEDTAMYYCAKPKTTGYYYLDAFDFWGQGTMVTVSS
VL: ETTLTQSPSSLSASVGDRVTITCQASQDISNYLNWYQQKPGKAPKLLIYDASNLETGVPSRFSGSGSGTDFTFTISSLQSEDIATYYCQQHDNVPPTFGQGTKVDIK
notes: also called Ab 551; Antibody Number 551
B7: ADI-14405 (antibody, V domains shown)
VH: QVQLVQSGTEVKKPGASVKVSCKASGYTFTNYDISWVRQAPGQGLEWMGWISGSTGNTIYAQNLQGRLTMTTDTSTSTAYMELRSLRSDDTAIYYCARDNVGYASGNYFDYWGQGTLVTVSS
VL: SYVLTQPPSVSVAPGKTARIPCGGNNIGSKSVHWYQQRPGQAPVLVIYYDSVRPSGIPERFSGSNSGNTATLTISTVEAGDEADFYCQVWDSSRDHEVFGGGTKLTVL
notes: also called Ab 71; Antibody Number 71
B8: ADI-43647 (antibody, V domains shown)
VH: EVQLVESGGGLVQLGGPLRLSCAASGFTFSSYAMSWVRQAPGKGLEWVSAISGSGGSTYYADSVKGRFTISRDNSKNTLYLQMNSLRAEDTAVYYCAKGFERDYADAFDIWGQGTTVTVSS
VL: DIRMTQSPSSVSASVGDRVTITCRASQGISSWLAWYQQKPGKAPKLLIYAASSLQSGVPSRFSGSGSGTDFTLTISSLQPEDFATYYCQQANSFPITFGQGTRLEIK
notes: also called Ab 828; Antibody Number 828
B9: ADI-19425 Fab variant, light chain Y31A (Fab, V domains shown)
VH: EVQLVESGGGLVKPGGSLRLSCAASGFTFSSYSMNWVRQAPGKGLEWVSSISSSSSYIYYADSVKGRFTISRDNAKNSLYLQMNSLRAEDTAVYYCARLGYCSGGSCHFDYWGQGTLVTVSS
VL: QPVLTQPPSVSGAPGQRVTISCTGSSSNIGAGADVHWYQQLPGTAPKLLIYGNSNRPSGVPDRFSGSKSGTSASLAITGLQAEDEADYYCQSYDSSLSGFYVFGTGTKLTVL
notes: also called Y33A
B10: ADI-19425 Fab variant, light chain Y91A (Fab, V domains shown)
VH: B9 VH
VL: B9 VL with A33Y, Y93A
notes: also called Y93A
B11: ADI-41361 (antibody, V domains shown)
VH: QVQLQESGGGVVQPGRSLRLSCAASGFAFSDYAMDWVRQAPGKGLEWVAVISFDGSNKFYADSVKGRFTISRDNSENTLFLQMNSLRAEDTAVYYCVRDFVPCSGATCYLPPVYWGRGTLVTVSS
VL: EIVLTQSPATLSVSPGERATLSCRASQSVSSDLAWYQQKPGQAPRLLIYGASTRATGIPARFSGSGSGTEFTLTISRLQSEDFAVYFCQQYNNWPSWTFGQGTKVEIK
notes: IgG1; also called Ab 658
B12: ADI-41350 (antibody, V domains shown)
VH: EVQLVESGAGLVQPGGSLRLSCAASGFTFSTYAVSWVRQAPGKGLEWVSAISGSGASTYFADSVKGRFTISRDNSKNTLYLQMNSLRAEDTAVYYCAKARLELRPYYYGMDVWGQGTTVTVSS
VL: QPVLTQPASVSGSPGQSITISCTGTSSDVGGYNFVSWYQQHPGKAPKLIIYEVSNRPSGVSNRFSGSKSGNTASLTISGLQAEDEADYYCSSSTLSTTYVFGTGTKVTVL
notes: IgG1
B13: ADI-41400 (antibody, V domains shown)
VH: EVQLLESGGGLIQPGGSLRLSCAASKFTFSDYEMNWVRQAPGKGLEWLSYISSSGGIMYYADSVKGRFTISRDNAKNSLYLQMNSLRAEDTAVYFCARAGRLLSGLDVWGHGTTVTVSS
VL: EIVLTQSPSTLSASVGDRVTITCRASQSISPWLAWYQQKPGKAPKLLIYRASSLETGVPPRFSGSGSGTEFTLTISSLQPDDFATYYCQHYNSYLYSFGQGTKVEIK
notes: IgG1; also called Ab 693
B14: ADI-41420 (antibody, V domains shown)
VH: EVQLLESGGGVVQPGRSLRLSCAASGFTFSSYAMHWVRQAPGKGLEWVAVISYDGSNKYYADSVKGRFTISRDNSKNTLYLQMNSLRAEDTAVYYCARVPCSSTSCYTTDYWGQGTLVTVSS
VL: QPVLTQPPSVSGSPGQSVTISCTGTSSDVGSYNRVSWYQQPPGTAPKLMIYEVSNRPSGVPDRFSGSKSGNTASLTISGLQAEDEADYYCSSYTSSSPVFGGGTKVTVL
notes: IgG1
B15: ADI-41379 (antibody, V domains shown)
VH: QVQLVQSGAEVKKPGESLKISCKGSGYSFSSFWIGWVRQMPGKGLEWMGIIYPGDSDTRYSPSFKGQVTISADTSISTAYLQWSSLKASDTAMYYCAKSIVGSTGSFDPWGQGTLVTVSS
VL: DIQMTQSPSSLSASVGDRVTITCQASQDISNFLNWYQQKPGKAPKLLIYDASNLRTGVPSRFSGSGSGTEFTFTISSLQPEDIATYYCQQYHDLPPLTFGGGTKVDIK
notes: IgG1
B16: ADI-41406 (antibody, V domains shown)
VH: EVQLVESGGNLVQPGGSLRLSCAASGFTFSSYVMNWVRQAPGKGLEWVSGISGSGGTSYYADSVKGRFTISRDNSNNTLYLQMKSLRAEDTAVYYCAKDPRFQKWLIEGTNWFDSWGQGTLVTVSS
VL: DIQVTQSPSSLSASVGDRVTITCRASQDVSNYLAWFQQKPGTAPKSLIYAASILQSGVPSKFRGSGSGTDFSLTISSLQPEDFATYYCQQYRSFPPTFGGGTKVEIK
notes: IgG1; also called Ab 698
B17: ADI-41435 (antibody, V domains shown)
VH: EVQLLESGGGLVKPGGSLRLSCAASGFTFSSYSLNWVRQAPGKGLEWVSSISSSGTYIFYADSVKGRFTISRDNAKDSLFLQMNSLRAEDTAVYYCARARDMGNYDILTGYYRVDAFDIWGQGTMVTVSS
VL: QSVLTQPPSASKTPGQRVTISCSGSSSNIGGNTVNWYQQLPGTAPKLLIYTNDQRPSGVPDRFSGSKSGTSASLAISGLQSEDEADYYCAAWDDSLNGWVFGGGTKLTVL
notes: IgG1

What follows are binders tested against T1, RSV F on RSV subtype A virus (RSV-A2) (Respiratory Syncytial Virus, subtype A, …, UniProt P03420 26-574) (assay: cell-based or functional assay).

Binder	Neutralization IC50 (RSV subtype A)
B1	> 25 µg/mL
B2	> 25 µg/mL

Each binder was assayed against T2, RSV postfusion F (postF), F ΔFP trimer, subtype A (Respiratory Syncytial Virus, subtype A, UniProt P03420 26-513) (assay: BLI, apparent IgG KD (Table 9A)).

Binder	Kd
B3	320 pM
B4	150 pM
B5	440 pM
B6	710 pM
B7	12000 pM

These binders were tested against T3, RSV prefusion F (preF), DS-Cav1 stabilized trimer, subtype A (Respiratory Syncytial Virus, subtype A, UniProt P03420 26-513) (assay: BLI, apparent IgG KD (Table 9A)).

Binder	Kd
B3	300 pM
B4	92 pM
B5	300 pM
B6	1100 pM
B7	140 pM

Each binder was assayed against RSV prefusion F (preF), DS-Cav1 (Respiratory Syncytial Virus, UniProt P03420 26-513) (assay: BLI (ForteBio Octet), IgG on anti-human IgG biosensors).

Binder	binding result
B8	no binding

Each binder was assayed against T4, preF (DS-Cav1) with a C-terminal 8X HisTag and AviTag (Respiratory Syncytial Virus, UniProt P03420 26-513) (assay: SPR, preF (DS-Cav1) captured on NTA chip, Fab in solution, 1:1 model).
T4 construct: not shown: C-terminal 8X HisTag and AviTag

Binder	fold reduction in affinity relative to ADI-19425 Fab
B9	> 20 fold
B10	> 80 fold

The binders below were run against RSV postfusion F (postF), F deltaFP (respiratory syncytial virus, UniProt P03420 26-513) (assay: BLI, IgG on sensor, 100 nM antigen).

Binder	Kd
B11	383 pM
B12	602 pM
B13	547 pM
B14	110000 pM
B15	1110 pM
B16	571 pM
B17	3470 pM

Target: T1, RSV F on RSV subtype A virus (RSV-A2)
Experiment: cell-based or functional assay
Remark: another data set of the same source

Binder	Neutralization - RSV A2 IC50 (pM)	neut IC50 (ug/ml) subtype A (wright)	neut IC50 (ug/ml) subtype A (graham)
B3	65.4 pM	0.04 µg/mL	–
B4	67 pM	–	0.05 µg/mL
B5	180 pM	0.054 µg/mL	–
B6	228 pM	0.066 µg/mL	–
B7	58.3 pM	–	0.04 µg/mL

The binders below were run against RSV F on RSV subtype B virus (mKate-RSV B 18537) (Respiratory Syncytial Virus, subtype B, …, UniProt P13843 26-574) (assay: cell-based or functional assay).

Binder	neut IC50 (ug/ml) subtype B (graham)
B4	0.49 µg/mL
B7	0.04 µg/mL

What follows are binders tested against RSV prefusion F (preF), DS-Cav1 (respiratory syncytial virus, UniProt P03420 26-513) (assay: BLI, IgG on sensor).

Binder	binding result
B11	no binding (tested: 100 nM antigen)
B12	no binding (tested: 100 nM antigen)
B13	no binding (tested: 100 nM antigen)
B14	no binding (tested: 100 nM antigen)
B15	no binding (tested: 100 nM antigen)
B16	no binding (tested: 100 nM antigen)
B17	no binding (tested: 100 nM antigen)

These binders were tested against RSV fusion glycoprotein (RSV F) on RSV-A2 virus (respiratory syncytial virus, UniProt P03420 26-574) (assay: cell-based or functional assay).

Binder	Neutralization IC50 (RSV subtype A)
B11	2.54 µg/mL
B12	> 25 µg/mL
B13	> 25 µg/mL
B14	> 25 µg/mL
B15	> 25 µg/mL
B16	> 25 µg/mL
B17	> 25 µg/mL

What follows are binders tested against Respiratory Syncytial Virus fusion glycoprotein (RSV F) on RSV-A2 virus (Respiratory Syncytial Virus, UniProt P03420 26-574) (assay: cell-based or functional assay).

Binder	Neutralization IC50 (RSV subtype A)
B8	> 25 µg/mL

Each binder was assayed against T3, RSV prefusion F (preF), DS-Cav1 … (assay: BLI, IgG on anti-human IgG sensors).

Binder	binding result
B1	no binding (tested: 100 nM antigen)
B2	no binding (tested: 100 nM antigen)

These binders were tested against RSV postfusion F (postF), F ΔFP (Respiratory Syncytial Virus, UniProt P03420 26-513) (assay: BLI (ForteBio Octet), IgG on anti-human IgG biosensors, 100 nM antigen, apparent (IgG) KD).

Binder	Kd
B8	44600 pM

The binders below were run against T2, RSV postfusion F (postF), F ΔFP trimer, … (assay: BLI, IgG on anti-human IgG sensors, 100 nM antigen, apparent KD).

Binder	Kd
B1	9930 pM
B2	233000 pM
